In patent US20220195012A1:

Tests used:
Experiment in all cases: cell-based or functional assay
AP C3-convertase (C3bBb) = AP C3-convertase (C3bBb) (UniProt P01024)
C3b = C3b (UniProt P01024)
C4b = C4b (UniProt P0C0L4)
[1] = substrate: CP C3-convertase (C4b2a) (UniProt P0C0L4)
Sequence of CP C3-convertase (C4b2a) (P0C0L4 757-1446 limits assumed, chain 1 of 4): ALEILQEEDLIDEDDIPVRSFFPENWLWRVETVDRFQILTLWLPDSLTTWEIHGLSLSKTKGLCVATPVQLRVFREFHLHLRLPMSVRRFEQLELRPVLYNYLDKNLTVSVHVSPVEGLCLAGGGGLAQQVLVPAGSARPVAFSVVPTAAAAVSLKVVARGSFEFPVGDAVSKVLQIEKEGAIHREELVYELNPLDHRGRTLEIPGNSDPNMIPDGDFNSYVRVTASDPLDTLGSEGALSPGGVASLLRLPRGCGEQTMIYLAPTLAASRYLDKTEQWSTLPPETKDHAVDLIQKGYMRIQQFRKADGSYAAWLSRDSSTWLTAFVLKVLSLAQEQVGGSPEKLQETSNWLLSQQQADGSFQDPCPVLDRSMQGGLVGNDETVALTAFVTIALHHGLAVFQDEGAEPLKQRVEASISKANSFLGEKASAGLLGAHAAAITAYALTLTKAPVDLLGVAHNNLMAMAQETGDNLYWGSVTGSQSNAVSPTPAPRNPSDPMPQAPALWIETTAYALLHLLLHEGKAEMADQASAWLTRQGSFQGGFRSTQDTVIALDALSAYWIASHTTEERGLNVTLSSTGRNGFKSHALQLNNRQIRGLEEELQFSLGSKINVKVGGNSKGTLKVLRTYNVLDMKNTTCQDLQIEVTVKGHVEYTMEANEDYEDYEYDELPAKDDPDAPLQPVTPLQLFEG
Sequence of CP C3-convertase (C4b2a) (P0C0L4 20-675 limits assumed, chain 2 of 4): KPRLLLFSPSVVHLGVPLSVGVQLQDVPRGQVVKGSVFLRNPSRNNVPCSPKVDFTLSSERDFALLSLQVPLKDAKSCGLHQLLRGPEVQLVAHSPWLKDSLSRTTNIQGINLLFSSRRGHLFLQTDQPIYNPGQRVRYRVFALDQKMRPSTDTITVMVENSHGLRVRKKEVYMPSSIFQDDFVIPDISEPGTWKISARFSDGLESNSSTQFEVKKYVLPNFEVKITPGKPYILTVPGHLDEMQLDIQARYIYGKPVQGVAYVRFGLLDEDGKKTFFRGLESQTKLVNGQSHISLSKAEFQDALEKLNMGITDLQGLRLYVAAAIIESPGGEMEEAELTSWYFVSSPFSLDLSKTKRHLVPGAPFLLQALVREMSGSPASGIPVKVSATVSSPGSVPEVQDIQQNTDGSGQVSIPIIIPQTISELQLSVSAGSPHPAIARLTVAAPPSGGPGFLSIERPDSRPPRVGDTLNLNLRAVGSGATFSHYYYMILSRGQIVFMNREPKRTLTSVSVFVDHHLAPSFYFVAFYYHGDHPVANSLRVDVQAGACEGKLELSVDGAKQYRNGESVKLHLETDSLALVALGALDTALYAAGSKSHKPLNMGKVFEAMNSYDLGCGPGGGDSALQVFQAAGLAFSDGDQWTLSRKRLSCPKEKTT
Sequence of CP C3-convertase (C4b2a) (P0C0L4 1454-1744 limits assumed, chain 3 of 4): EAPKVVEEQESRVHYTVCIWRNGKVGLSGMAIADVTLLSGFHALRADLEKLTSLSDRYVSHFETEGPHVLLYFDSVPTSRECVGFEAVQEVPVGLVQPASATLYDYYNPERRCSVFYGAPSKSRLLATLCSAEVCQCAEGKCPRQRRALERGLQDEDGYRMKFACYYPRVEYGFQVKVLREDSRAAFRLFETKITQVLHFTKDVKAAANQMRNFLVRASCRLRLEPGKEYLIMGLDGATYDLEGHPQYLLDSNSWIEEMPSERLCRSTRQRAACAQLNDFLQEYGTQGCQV
Sequence of CP C3-convertase (C4b2a) (P06681 244-752 limits assumed, chain 4 of 4, further chain): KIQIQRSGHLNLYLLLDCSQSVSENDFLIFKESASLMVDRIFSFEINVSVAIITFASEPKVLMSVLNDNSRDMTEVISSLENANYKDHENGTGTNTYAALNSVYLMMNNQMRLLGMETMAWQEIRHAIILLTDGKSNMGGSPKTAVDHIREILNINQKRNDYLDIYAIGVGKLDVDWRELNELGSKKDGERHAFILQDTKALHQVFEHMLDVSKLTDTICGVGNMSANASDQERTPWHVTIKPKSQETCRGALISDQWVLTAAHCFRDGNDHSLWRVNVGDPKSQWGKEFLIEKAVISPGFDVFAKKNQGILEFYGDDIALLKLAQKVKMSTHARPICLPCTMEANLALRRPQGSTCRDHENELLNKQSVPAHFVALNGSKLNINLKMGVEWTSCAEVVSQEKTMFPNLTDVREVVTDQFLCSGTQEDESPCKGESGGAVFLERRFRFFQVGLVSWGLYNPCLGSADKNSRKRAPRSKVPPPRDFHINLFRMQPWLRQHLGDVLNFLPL

Sequence of C4b (P0C0L4 757-1446 limits assumed, chain 1 of 3): as the sequence (P0C0L4 757-1446 limits assumed, chain 1 of 4) above
Sequence of C4b (P0C0L4 20-675 limits assumed, chain 2 of 3): as the sequence (P0C0L4 20-675 limits assumed, chain 2 of 4) above
Sequence of C4b (P0C0L4 1454-1744 limits assumed, chain 3 of 3): as the sequence (P0C0L4 1454-1744 limits assumed, chain 3 of 4) above
Sequence of AP C3-convertase (C3bBb) (P01024 23-667 limits assumed, chain 1 of 3): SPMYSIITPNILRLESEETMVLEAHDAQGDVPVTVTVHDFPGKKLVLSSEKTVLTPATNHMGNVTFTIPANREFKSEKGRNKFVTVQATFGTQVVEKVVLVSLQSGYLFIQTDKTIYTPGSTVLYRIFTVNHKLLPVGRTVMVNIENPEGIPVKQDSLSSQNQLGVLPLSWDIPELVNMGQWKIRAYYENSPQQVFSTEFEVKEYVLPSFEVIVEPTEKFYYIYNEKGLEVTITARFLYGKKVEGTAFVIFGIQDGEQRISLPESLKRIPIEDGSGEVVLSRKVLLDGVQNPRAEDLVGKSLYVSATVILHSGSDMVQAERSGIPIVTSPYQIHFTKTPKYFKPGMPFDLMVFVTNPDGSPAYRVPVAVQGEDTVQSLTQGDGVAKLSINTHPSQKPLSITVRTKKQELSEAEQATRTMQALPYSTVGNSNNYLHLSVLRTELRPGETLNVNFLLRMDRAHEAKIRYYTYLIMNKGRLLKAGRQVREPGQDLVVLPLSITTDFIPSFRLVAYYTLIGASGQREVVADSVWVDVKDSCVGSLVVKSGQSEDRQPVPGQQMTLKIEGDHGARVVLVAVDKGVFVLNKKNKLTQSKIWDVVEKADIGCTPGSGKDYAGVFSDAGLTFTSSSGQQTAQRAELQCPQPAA
Sequence of AP C3-convertase (C3bBb) (P01024 749-1663 limits assumed, chain 2 of 3): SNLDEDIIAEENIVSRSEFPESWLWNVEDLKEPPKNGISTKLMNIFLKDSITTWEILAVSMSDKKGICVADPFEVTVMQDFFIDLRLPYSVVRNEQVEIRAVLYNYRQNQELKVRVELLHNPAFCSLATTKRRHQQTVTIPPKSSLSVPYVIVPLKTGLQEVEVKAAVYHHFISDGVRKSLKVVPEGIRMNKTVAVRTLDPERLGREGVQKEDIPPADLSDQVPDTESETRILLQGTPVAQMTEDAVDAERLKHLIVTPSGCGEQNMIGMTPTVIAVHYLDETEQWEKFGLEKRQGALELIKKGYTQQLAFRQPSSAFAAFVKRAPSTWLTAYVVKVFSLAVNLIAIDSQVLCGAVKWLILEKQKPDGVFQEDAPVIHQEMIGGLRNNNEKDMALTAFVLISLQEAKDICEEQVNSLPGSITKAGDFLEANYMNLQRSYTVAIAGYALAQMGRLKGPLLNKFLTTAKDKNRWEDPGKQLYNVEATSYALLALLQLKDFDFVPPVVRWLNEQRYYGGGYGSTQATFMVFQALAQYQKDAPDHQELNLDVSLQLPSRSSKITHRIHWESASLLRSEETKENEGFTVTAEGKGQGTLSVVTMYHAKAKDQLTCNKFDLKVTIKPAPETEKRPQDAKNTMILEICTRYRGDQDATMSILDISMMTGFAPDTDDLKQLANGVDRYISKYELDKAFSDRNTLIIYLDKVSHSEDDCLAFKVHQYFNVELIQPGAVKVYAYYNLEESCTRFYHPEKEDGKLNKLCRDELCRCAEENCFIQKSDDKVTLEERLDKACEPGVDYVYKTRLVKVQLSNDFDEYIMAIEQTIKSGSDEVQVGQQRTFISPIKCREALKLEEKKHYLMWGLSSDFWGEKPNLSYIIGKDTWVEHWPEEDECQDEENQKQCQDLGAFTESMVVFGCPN
Sequence of AP C3-convertase (C3bBb) (P00751 260-764 limits assumed, chain 3 of 3, further chain): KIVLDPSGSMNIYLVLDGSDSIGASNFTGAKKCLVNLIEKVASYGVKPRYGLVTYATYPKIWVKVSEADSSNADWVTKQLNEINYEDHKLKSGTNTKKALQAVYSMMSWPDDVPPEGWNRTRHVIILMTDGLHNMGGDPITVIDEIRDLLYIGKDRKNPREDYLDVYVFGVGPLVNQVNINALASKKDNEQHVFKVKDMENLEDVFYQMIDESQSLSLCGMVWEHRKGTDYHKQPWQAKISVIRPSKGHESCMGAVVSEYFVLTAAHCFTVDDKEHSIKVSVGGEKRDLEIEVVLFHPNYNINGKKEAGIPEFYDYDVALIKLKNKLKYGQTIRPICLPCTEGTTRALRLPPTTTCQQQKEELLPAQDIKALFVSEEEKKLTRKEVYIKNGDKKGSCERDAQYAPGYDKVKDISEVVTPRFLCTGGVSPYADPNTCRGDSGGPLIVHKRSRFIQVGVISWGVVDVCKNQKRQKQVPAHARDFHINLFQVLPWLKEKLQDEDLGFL
Sequence of C3b (P01024 23-667 limits assumed, chain 1 of 2): as the sequence (P01024 23-667 limits assumed, chain 1 of 3) above
Sequence of C3b (P01024 749-1663 limits assumed, chain 2 of 2): as the sequence (P01024 749-1663 limits assumed, chain 2 of 3) above

Binder	AP-DAA, fold increase compared to D2M2-4 (AP C3-convertase (C3bBb)) [fold]	AP-DAA, fold less compared to DAF (AP C3-convertase (C3bBb)) [fold]	AP-DAA IC50 (AP C3-convertase (C3bBb)) [µM]	Relative AP-DAA (AP C3-convertase (C3bBb))	C3b CFA: Time (min.) for 50% cleavage of C3B α′-chain (C3b) [min]	Relative C3b CFA (C3b)	C4b CFA: Time (min.) for 50% cleavage of C4B α′-chain (C4b) [min]	Relative C4b CFA (C4b)	CP-DAA IC50 [1] [µM]	Relative CP-DAA [1]
D2M2-4 (Tetra) (protein) CEVPTRLNSASLKQPYITQNYFPVGTVVEYECRPGYRRQPSLSPKLTCLQNLKWSTAVEFCKKKSCPNIRDPLNGQAVPANGTYEFGYQMHFICNEGYYLAGEEILYCELKGSVAIWSGKPPICEKVKCTPPPKIKNGKHTFSEVEVFEYLDAVTYSCDPAPGPDPFSLIGESTIYCGDNSVWSRAAPECKVVKCRFPVVENGKQISGFGKKFYYKATVMFECDKGFYLDGSDTIVCDSNSTWDPPVPKCLKVL	12.5	138								
D2D3M3M4 (L205K) (protein) CEVPTRLNSASLKQPYITQNYFPVGTVVEYECRPGYRREPSLSPKLTCLQNLKWSTAVEFCKKKSCPNPGEIRNGQIDVPGGILFGATISFSCNTGYKLFGSTSSFCKISGSSVQWSDPLPECREIYCTPPPKIKNGKHTFSEVEVFEYLDAVTYSCDPAPGPDPFSLIGESTIYCGDNSVWSRAAPECKVVKCRFPVVENGKQISGFGKKFYYKATVMFECDKGFYLDGSDTIVCDSNSTWDPPVPKCLKVL			> 0.01	0.2	104	0.8	433	1.07	9.2	1.7
D2D3M3M4 (T200Y) (protein) CEVPTRLNSASLKQPYITQNYFPVGTVVEYECRPGYRREPSLSPKLTCLQNLKWSTAVEFCKKKSCPNPGEIRNGQIDVPGGILFGATISFSCNTGYKLFGSYSSFCLISGSSVQWSDPLPECREIYCTPPPKIKNGKHTFSEVEVFEYLDAVTYSCDPAPGPDPFSLIGESTIYCGDNSVWSRAAPECKVVKCRFPVVENGKQISGFGKKFYYKATVMFECDKGFYLDGSDTIVCDSNSTWDPPVPKCLKVL			0.0037	0.56	103	0.8	513	0.9	17.7	0.9
D2D3M3M4 (K195Y) (protein) CEVPTRLNSASLKQPYITQNYFPVGTVVEYECRPGYRREPSLSPKLTCLQNLKWSTAVEFCKKKSCPNPGEIRNGQIDVPGGILFGATISFSCNTGYYLFGSTSSFCLISGSSVQWSDPLPECREIYCTPPPKIKNGKHTFSEVEVFEYLDAVTYSCDPAPGPDPFSLIGESTIYCGDNSVWSRAAPECKVVKCRFPVVENGKQISGFGKKFYYKATVMFECDKGFYLDGSDTIVCDSNSTWDPPVPKCLKVL			> 0.01	0.2			> 540	< 0.85	> 100	6.2
D2D3M3M4 (P216K) (protein) CEVPTRLNSASLKQPYITQNYFPVGTVVEYECRPGYRREPSLSPKLTCLQNLKWSTAVEFCKKKSCPNPGEIRNGQIDVPGGILFGATISFSCNTGYKLFGSTSSFCLISGSSVQWSDKLPECREIYCTPPPKIKNGKHTFSEVEVFEYLDAVTYSCDPAPGPDPFSLIGESTIYCGDNSVWSRAAPECKVVKCRFPVVENGKQISGFGKKFYYKATVMFECDKGFYLDGSDTIVCDSNSTWDPPVPKCLKVL			0.0034	0.6	30.1	2.7	93.3	5	21	0.75
D2D3M3M4 (S199K) (protein) CEVPTRLNSASLKQPYITQNYFPVGTVVEYECRPGYRREPSLSPKLTCLQNLKWSTAVEFCKKKSCPNPGEIRNGQIDVPGGILFGATISFSCNTGYKLFGKTSSFCLISGSSVQWSDPLPECREIYCTPPPKIKNGKHTFSEVEVFEYLDAVTYSCDPAPGPDPFSLIGESTIYCGDNSVWSRAAPECKVVKCRFPVVENGKQISGFGKKFYYKATVMFECDKGFYLDGSDTIVCDSNSTWDPPVPKCLKVL			0.0065	0.3	18.9	4.4	181	2.5	23.7	0.7
D2D3M3M4 (F197I) (protein) CEVPTRLNSASLKQPYITQNYFPVGTVVEYECRPGYRREPSLSPKLTCLQNLKWSTAVEFCKKKSCPNPGEIRNGQIDVPGGILFGATISFSCNTGYKLIGSTSSFCLISGSSVQWSDPLPECREIYCTPPPKIKNGKHTFSEVEVFEYLDAVTYSCDPAPGPDPFSLIGESTIYCGDNSVWSRAAPECKVVKCRFPVVENGKQISGFGKKFYYKATVMFECDKGFYLDGSDTIVCDSNSTWDPPVPKCLKVL			0.0044	0.3	49.8	1.7	96.7	7	30.7	0.5
D2D3M3M4 (Multi-5) or DCP (decay-cofactor protein) (protein) CEVPTRLNSASLKQPYITQNYFPVGTVVEYECRPGYRREPSLSPKLTCLQNLKWSTAVEFCKKKSCPNPGEIRNGQIDVPGGILFGATISFSCNTGYKLIGSTSSFCLISGSSVQWSDKLPICEKVLCTPPPKIKNGKHTFSEVEVFEYLDAVTYSCDPAPGPDPFSLIGESTIYCGDNSVWSRAAPECKVVKCRFPVVENGKQISGFGKKFYYKATVMFECDKGFYLDGSDTIVCDSNSTWDPPVPKCLKVL			0.0024	1.3	3.3	1.5	3.1	3	12.7	1.3
D2D3M3M4 (Multi-1) (protein) CEVPTRLNSASLKQPYITQNYFPVGTVVEYECRPGYRREPSLSPKLTCLQNLKWSTAVEFCKKKSCPNPGEIRNGQIDVPGGILFGATISFSCNTGYKLFGSTSSFCLISGSSVQWSDPLPICEKVLCTPPPKIKNGKHTFSEVEVFEYLDAVTYSCDPAPGPDPFSLIGESTIYCGDNSVWSRAAPECKVVKCRFPVVENGKQISGFGKKFYYKATVMFECDKGFYLDGSDTIVCDSNSTWDPPVPKCLKVL			0.0019	1.1	27.3	3	493	1.07	22.6	0.7
D2D3M3M4 (T192E) (protein) CEVPTRLNSASLKQPYITQNYFPVGTVVEYECRPGYRREPSLSPKLTCLQNLKWSTAVEFCKKKSCPNPGEIRNGQIDVPGGILFGATISFSCNEGYKLFGSTSSFCLISGSSVQWSDPLPECREIYCTPPPKIKNGKHTFSEVEVFEYLDAVTYSCDPAPGPDPFSLIGESTIYCGDNSVWSRAAPECKVVKCRFPVVENGKQISGFGKKFYYKATVMFECDKGFYLDGSDTIVCDSNSTWDPPVPKCLKVL			0.0025	0.9	74.3	1.1	268	8.7	15.5	1
